Test results reported in US10501502B2, “Allophycocyanin alpha-subunit evolved labeling proteins (smURFPs)” (The Regents of the University of California, priority 2016, dated 2019).
Where two headings read alike, the source gives them in different places.

Experiments:
[1] = FP purification and fluorescence characterization in vitro (spectra, extinction coefficient, quantum yield); type: physicochemical
Method in brief: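 His-tagged FPs expressed in E. coli with PCB or BV and Ni-NTA purified; apoproteins loaded in vitro with chromophore in PBS+10% FBS at 37 °C overnight. Extinction coefficient from BV absorbance at 390 nm or BCA protein assay; quantum yield relative to Cy5; photobleaching normalised to 1,000 photons/molecule/s.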

HT1080 cells = test: FP fluorescence in HT1080 cells in vitro; type: cell-based; settings: for fold greater fluorescence than mCardinal: BVMe2
[2] = Native PAGE quaternary structure / stoichiometry; type: physicochemical; settings: for stoichiometry: Table 5
Experimental: Native PAGE was run using NativePAGE Novex Bis-Tris Gel System (Life Technologies) on Native PAGE 4-16% Bis-Tris protein gels (Life Technologies). SDS-denaturing PAGE was run using NuPAGE MOPS SDS running buffer (Life Technologies) and NuPAGE Novex 4-12% Bis-Tris gels (Life Technologies). Precision Plus Protein Dual Color Standards (Bio-Rad) were used as an MW ladder. Zinc blot was performed after running the SDS-PAGE gel using the described method^44. Fluorescence was imaged using a BioSpectrum AC Imaging System (UVP) with EX/EM=535(45)/605(70) nm for tdTomato, EX/EM=650(13)/690(50) nm for smURFP and TDsmURFP, EX/EM=685(40)/710LP nm for IFP1.4 and BV+zinc.

HEK293A cells = test: FP stability in HEK293A cells (cycloheximide); type: cell-based; settings: for fold increase in smURFP fluorescence: HEK293A
Experimental: HEK293A cells were transfected with pCDNA3-smURFP-IRES-eGFP and incubated for 48 h. 50 μg/ml cycloheximide+25 μM BV, 5 μM BVMe2, or no chromophore was added and cells were imaged after 1, 10, 30, 60, 120, and 225 min. Fluorescence was fit to a single exponential decay (F=A [exp^−kt]), where F is fluorescence that varies as a function of time, A is the fit initial fluorescence, k is the rate of fluorescence decay (protein degradation), and t is time in min.

[3] = smURFP/TDsmURFP + 1 or 2 chromophore, Table 7

B1: smURFP: small ultra-red fluorescent protein, SEQ ID NO: 13, homodimer, covalently attaches biliverdin (protein)
chain: MKTSEQRVNIATLLTENKKKIVDKASQDLWRRHPDLIAPGGIAFSQRDRALCLRDYGWFLHLITFCLLAGDKGPIESIGLISIREMYNSLGVPVPAMMESIRCLKEASLSLLDEEDANETAPYFDYIIKAMS
modifications: homodimer; biliverdin chromophore; smRUFP Variant Polypeptide
[1]
  Emission Maximum: 670 nm
  extinction coefficient (EC): 180,000 M^−1cm^−1
  increase of BV QY after covalent attachment to smURFP: ~1,400 fold
  quantum yield (QY): 18%
[1]; Table 4
  Molecular Brightnes Relative to smURFP: 100%
[1]; Table 5
  Emission Maximum: 670 nm
  Excitation Maximum: 642 nm
  Extinction Coefficient: 180,000 ^ m^−1cm^−1/chromophore
  Quantum Yield: 18%
  molecular brightness relative to eGFP: 96%
[1]; b72, as fraction
  Quantum Yield: 0.20
[1]; biophysical brightness
  brightness relative to most red or far-red fluorescent proteins derived from coral: ~2 fold
[1]; evolved APCα FPs, Table 4
  Emission Maximum: 670 nm
  Excitation Maximum: 642 nm
  Extinction Coefficient: 180,000 M^−1 cm^−1
  Quantum Yield: 18%
[1]; running text and figure legends
  excitation (absorption) maximum: 642 nm
[1]; [3]
  Emission Maximum: 670 nm
  Excitation Maximum: 642 nm
  Extinction Coefficient: 180,000 M^−1 cm^−1
  Quantum Yield: 18%
HT1080 cells; 12.5 μM BV for 3 h
  fluorescence relative to mCherry in HT1080 cells in vitro: equivalent
HT1080 cells; HT1080, T2A construct
  fold greater fluorescence than mCardinal: 4 fold
[2]
  quaternary structure on native gel: homodimer
  stoichiometry: Dimer
HEK293A cells; 5 μM BVMe2, 1 h
  fold increase in smURFP fluorescence: 85 fold
HEK293A cells; 5 μM BVMe2, 3 h
  fold increase in smURFP fluorescence: 85 fold
HEK293A cells; 5 μM BVMe2, 48 h
  fold increase in smURFP fluorescence: 125 fold
HEK293A cells; 25 μM BV, 3 h
  fold increase in smURFP fluorescence: 13 fold
HEK293A cells; 25 μM BV, 48 h
  fold increase in smURFP fluorescence: 27 fold
HEK293A cells; BV exposure 3 h
  protein stability t50%: 30 h
HEK293A cells; BVMe2 exposure 3 h
  protein stability t50%: 33 h
HEK293A cells; HEK293A cells, cycloheximide
  protein stability t50%: 33 h
HEK293A cells; continuously exposed to BV, cycloheximide
  protein stability t50%: 33 h
HEK293A cells; continuously exposed to BVMe2, cycloheximide
  protein stability t50%: 35 h
HEK293A cells; without chromophore (apoprotein)
  protein stability t50%: 17 h

B2: smURFP + BVMe2: smURFP with a single biliverdin dimethyl ester chromophore (protein)
chain: B1 chain
modifications: left off: small tags and cut ends
notes: smURFP with a single biliverdin dimethyl ester chromophore
[1]; Table 5
  Emission Maximum: 672 nm
  Excitation Maximum: 646 nm
  Extinction Coefficient: 65,000^ m^−1cm^−1/chromophore
  Quantum Yield: 12%
  molecular brightness relative to eGFP: 23%
[1]; [3]
  Emission Maximum: 672 nm
  Excitation Maximum: 646 nm
  Extinction Coefficient: 65,000 M^−1 cm^−1
  Quantum Yield: 12%
HT1080 cells; HT1080 stable lines expressing each FP separately
  fold greater fluorescence than mCardinal: 2 fold
[2]
  stoichiometry: Dimer
HEK293A cells; HEK293A cells, cycloheximide
  protein stability t50%: 35 h
